Measurements as given in US20170247448A1 (INTRINSIC LIFESCIENCES, published 2017).

What was measured:
BAP070-hum05 = target: T1, BAP070-hum05; test: C-ELISA on goat anti-human Fc coat, hepcidin titrated against a labelled tracer not named for this figure
T1 construct: Expressed as soluble IgG1 in CHO cells, tested as supernatant; The entries stop inside FR4

BAP070-hum06 = target: T2, BAP070-hum06; test: as above
T2 construct: Expressed as soluble IgG1 in CHO cells, tested as supernatant; The entries stop inside FR4
T2 sequence (VH, as listed by the source, chain 1 of 2): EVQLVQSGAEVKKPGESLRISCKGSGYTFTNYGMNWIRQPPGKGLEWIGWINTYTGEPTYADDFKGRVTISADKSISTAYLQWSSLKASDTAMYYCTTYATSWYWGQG
T2 sequence (VL, as listed by the source, chain 2 of 2): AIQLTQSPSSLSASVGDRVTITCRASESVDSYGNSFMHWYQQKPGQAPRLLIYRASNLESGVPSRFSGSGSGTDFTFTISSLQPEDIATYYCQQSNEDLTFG

BAP070-hum04 = target: T3, BAP070-hum04; test: as above
T3 construct: Expressed as soluble IgG1 in CHO cells, tested as supernatant; The entries stop inside FR4
T3 sequence (VH, as listed by the source, chain 1 of 2): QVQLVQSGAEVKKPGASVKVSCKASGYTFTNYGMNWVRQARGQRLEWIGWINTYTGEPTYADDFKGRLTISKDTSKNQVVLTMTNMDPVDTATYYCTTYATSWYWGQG
T3 sequence (VL, as listed by the source, chain 2 of 2): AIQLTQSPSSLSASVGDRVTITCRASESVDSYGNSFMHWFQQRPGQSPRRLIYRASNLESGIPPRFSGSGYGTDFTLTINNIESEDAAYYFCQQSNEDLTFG

BAP070-hum02 = target: T4, BAP070-hum02; test: as above
T4 construct: Expressed as soluble IgG1 in CHO cells, tested as supernatant; The entries stop inside FR4
T4 sequence (VL, as listed by the source, chain 2 of 2): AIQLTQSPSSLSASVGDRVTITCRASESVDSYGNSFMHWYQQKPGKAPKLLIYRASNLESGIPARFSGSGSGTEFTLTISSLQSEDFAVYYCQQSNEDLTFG

BAP070-hum01 [1] = target: T5, BAP070-hum01; test: as above
T5 construct: Expressed as soluble IgG1 in CHO cells, tested as supernatant; The entries stop inside FR4 (...WGQG / ...FG); also called humanized hit 1
T5 sequence (VL, as listed by the source, chain 2 of 2): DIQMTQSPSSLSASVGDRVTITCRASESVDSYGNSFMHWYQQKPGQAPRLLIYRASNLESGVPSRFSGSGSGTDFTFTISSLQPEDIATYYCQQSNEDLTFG

BAP070-hum03 = target: T6, BAP070-hum03; test: as above
T6 construct: Expressed as soluble IgG1 in CHO cells, tested as supernatant; The entries stop inside FR4
T6 sequence (VH, as listed by the source, chain 1 of 2): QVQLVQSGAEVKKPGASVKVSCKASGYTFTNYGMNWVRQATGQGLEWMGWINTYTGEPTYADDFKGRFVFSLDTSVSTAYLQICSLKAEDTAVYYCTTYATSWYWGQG

[2] = target: T7, BAP070-01 (human-mouse chimeric MAb 583); test: as above
T7 construct: used as CHO cell supernatant; also called BAP070-1
T7 sequence (VH, as listed by the source, chain 1 of 2): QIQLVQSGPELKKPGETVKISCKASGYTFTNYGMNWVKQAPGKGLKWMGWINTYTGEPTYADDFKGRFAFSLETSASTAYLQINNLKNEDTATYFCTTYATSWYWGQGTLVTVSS
T7 sequence (VL, as listed by the source, chain 2 of 2): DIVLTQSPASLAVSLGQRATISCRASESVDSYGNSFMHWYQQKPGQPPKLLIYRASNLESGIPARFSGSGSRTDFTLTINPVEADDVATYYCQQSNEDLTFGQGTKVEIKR

BAP070-hum01 [3] = target: T5, BAP070-hum01; test: C-ELISA: goat anti-human Fc coated plate, antibody captured (30 ng/well per title of FIG. 20D), unlabelled hepcidin titrated (ng/well per axis of FIG. 20D) against a labelled tracer not named for this figure; OD = tracer left on the antibody

IC50 (read off the curve) (BAP070-hum05): ~2 ng/well | IC50 (read off the curve) (BAP070-hum06): ~2 ng/well | IC50 (read off the curve) (BAP070-hum04): ~2 ng/well | IC50 (read off the curve) (BAP070-hum02): ~2 ng/well | IC50 (read off the curve) (BAP070-hum01 [1]): ~2 ng/well | IC50 (read off the curve) (BAP070-hum03): ~2 ng/well | IC50 (read off the curve) [2]: ~2 ng/well | OD450 at 0.000 ng/well hepcidin (BAP070-hum01 [3]): 0.408 | OD450 at 0.137 ng/well hepcidin (BAP070-hum01 [3]): 0.424 | OD450 at 0.412 ng/well hepcidin (BAP070-hum01 [3]): 0.415 | OD450 at 1.235 ng/well hepcidin (BAP070-hum01 [3]): 0.311 | OD450 at 3.704 ng/well hepcidin (BAP070-hum01 [3]): 0.166 | OD450 at 11.111 ng/well hepcidin (BAP070-hum01 [3]): 0.0849 | OD450 at 33.333 ng/well hepcidin (BAP070-hum01 [3]): 0.0336 | OD450 at 100.000 ng/well hepcidin (BAP070-hum01 [3]): 0.0144
B1: Human hepcidin peptide (hepcidin-25) (peptide)
peptide: DTHFPICIFCCGCCHRSKCGMCCKT
notes: Synthetic 25 aa peptide; also called hep-25; Hep-25
